Data from the RNAGym collection of RNA variant scans (doi:10.1093/molbev/msab373).

B1: Azoarcus group I ribozyme (parent)
chain: GUGCCUUGCGCCGGGAAACCACGCAAGGGAUGGUGUCAAAUUCGGCGAAACCUAAGCGCCCGCCCGGGCGUAUGGCAACGCCGAGCCAAGCUUCGGCGCCUGCGCCGAUGAAGGUGUAGAGACUAGACGGCACCCACCUAAGGCAAACGCUAUGGUGAAGGCAUAGUCCAGGGAGUGGCGAAAGUCACACAAACCGG

Variants of: B1
Experiment: reverse-splicing fitness (ratio to wild type); higher = more active; in vitro selection; Mg2+ level not given
How it was run: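 An in vitro group I ribozyme library with randomized positions was T7-transcribed and gel-purified. In triplicate, 10 pmol RNA in EPPS pH 7.5 was reacted with 50 pmoles of a 30-nt RNA substrate for 1 h at 37 °C across several added MgCl2 levels (1–48 mM), then stopped with EDTA. Products were reverse transcribed from a substrate-complementary primer, PCR-amplified and sequenced (HiSeq 4000). Fitness is a variant's read proportion after selection over that before, normalised to wild type.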

Question: For C82A A111G A120U A145U C150G C169U, which reverse-splicing fitness is on record?
Answer: 0.00268

Question: Which reverse-splicing fitness does the source give for C82A A111G A120U A145U C150G C169A here?
Answer: 0.00373

Question: For C82A A111G A120U A145U C150G C169G, which reverse-splicing fitness is on record?
Answer: 0.00311

Question: For C82A A111G A120G U176A, which reverse-splicing fitness is on record?
Answer: 0.0146

Question: For C82A A111G A120G U176C, which reverse-splicing fitness is on record?
Answer: 0.0182

Question: With C82A A111G A120G U176G as the variant, how does the reverse-splicing fitness read?
Answer: 0.00613

Question: With C82A A111G A120U A145U C150A C169G as the variant, how does the reverse-splicing fitness read?
Answer: 0.00258

Question: With C82A A111G A120U A145U C150A C169U as the variant, how does the reverse-splicing fitness read?
Answer: 0.00275

Question: With C82A A111G A120U A145U C150A C169A as the variant, how does the reverse-splicing fitness read?
Answer: 0.00209

Question: With C82A A111G A120U A145C C150U C169A U176G as the variant, how does the reverse-splicing fitness read?
Answer: 0.00215

Question: With C82A A111G A120U A145C C150U C169A U176A as the variant, how does the reverse-splicing fitness read?
Answer: 0.00228

Question: With C82A A111G A120U A145C C150U C169A U176C as the variant, how does the reverse-splicing fitness read?
Answer: 0.00215

Question: Which reverse-splicing fitness does the source give for C82A A111G A120U A145U C169U U176G here?
Answer: 0.00199

Question: With C82A A111G A120U A145U C169U U176A as the variant, how does the reverse-splicing fitness read?
Answer: 0.00277

Question: Which reverse-splicing fitness does the source give for C82A A111G A120U A145U C169U U176C here?
Answer: 0.00256

Question: With C82A A111G A120U A145G C150U C169U U176C as the variant, how does the reverse-splicing fitness read?
Answer: 0.00442

Question: For C82A A111G A120U A145G C150U C169U U176A, which reverse-splicing fitness is on record?
Answer: 0.00523

Question: For C82A A111G A120U A145G C150U C169U U176G, which reverse-splicing fitness is on record?
Answer: 0.00242

Question: With C82A A111G A145C C150A C169U U176G as the variant, how does the reverse-splicing fitness read?
Answer: 0.00626

Question: With C82A A111G A145C C150A C169U U176A as the variant, how does the reverse-splicing fitness read?
Answer: 0.0133

Question: Which reverse-splicing fitness does the source give for C82A A111G A145C C150A C169U U176C here?
Answer: 0.00831

Question: For C82A A111G A120U C150U U176C, which reverse-splicing fitness is on record?
Answer: 0.0108

Question: With C82A A111G A120U C150U U176G as the variant, how does the reverse-splicing fitness read?
Answer: 0.00388

Question: With C82A A111G A120U C150U U176A as the variant, how does the reverse-splicing fitness read?
Answer: 0.00851

Question: Which reverse-splicing fitness does the source give for C82A A111G A145C C150G U176C here?
Answer: 0.0181

Question: With C82A A111G A145C C150G U176A as the variant, how does the reverse-splicing fitness read?
Answer: 0.00908

Question: For C82A A111G A145C C150G U176G, which reverse-splicing fitness is on record?
Answer: 0.00447

Question: Which reverse-splicing fitness does the source give for C82A A111G A120U C150A C169U U176G here?
Answer: 0.00235

Question: Which reverse-splicing fitness does the source give for C82A A111G A120U C150A C169U U176C here?
Answer: 0.00484

Question: With C82A A111G A120U C150A C169U U176A as the variant, how does the reverse-splicing fitness read?
Answer: 0.00585

Question: Which reverse-splicing fitness does the source give for C82A A111G A120U U176G here?
Answer: 0.00504

Question: With C82A A111G A120U U176C as the variant, how does the reverse-splicing fitness read?
Answer: 0.0161

Question: With C82A A111G A120U U176A as the variant, how does the reverse-splicing fitness read?
Answer: 0.0096

Question: Which reverse-splicing fitness does the source give for C82A A111G A120U A145G C150U U176G here?
Answer: 0.00409

Question: For C82A A111G A120U A145G C150U U176C, which reverse-splicing fitness is on record?
Answer: 0.0133

Question: With C82A A111G A120U A145G C150U U176A as the variant, how does the reverse-splicing fitness read?
Answer: 0.0096

Question: With C82A A111G A120U A145U C150G as the variant, how does the reverse-splicing fitness read?
Answer: 0.00746

Question: Which reverse-splicing fitness does the source give for C82A A111G A120U A145U C150A here?
Answer: 0.00648

Question: For C82A A111G A120U A145U C150U, which reverse-splicing fitness is on record?
Answer: 0.0232

Question: For C82A A111G A120U C150A C169A U176G, which reverse-splicing fitness is on record?
Answer: 0.00194

Question: Which reverse-splicing fitness does the source give for C82A A111G A120U C150A C169A U176C here?
Answer: 0.00319

Question: With C82A A111G A120U C150A C169A U176A as the variant, how does the reverse-splicing fitness read?
Answer: 0.00499

Question: With C82A A111G A145C C150U C169A as the variant, how does the reverse-splicing fitness read?
Answer: 0.00814

Question: Which reverse-splicing fitness does the source give for C82A A111G A145C C150U C169G here?
Answer: 0.00745

Question: For C82A A111G A145C C150U C169U, which reverse-splicing fitness is on record?
Answer: 0.0104

Question: Which reverse-splicing fitness does the source give for C82A A111G A120U A145U C169G here?
Answer: 0.00329

Question: With C82A A111G A120U A145U C169A as the variant, how does the reverse-splicing fitness read?
Answer: 0.00232

Question: For C82A A111G A120U A145U C169U, which reverse-splicing fitness is on record?
Answer: 0.00422

Question: With C82A A111G A145C C150G C169G U176C as the variant, how does the reverse-splicing fitness read?
Answer: 0.00679

Question: With C82A A111G A145C C150G C169G U176A as the variant, how does the reverse-splicing fitness read?
Answer: 0.0093

Question: Which reverse-splicing fitness does the source give for C82A A111G A145C C150G C169G U176G here?
Answer: 0.00649

Question: For C82A A111G A120U A145G C150G C169G U176G, which reverse-splicing fitness is on record?
Answer: 0.00316

Question: For C82A A111G A120U A145G C150G C169G U176A, which reverse-splicing fitness is on record?
Answer: 0.00925

Question: With C82A A111G A120U A145G C150G C169G U176C as the variant, how does the reverse-splicing fitness read?
Answer: 0.00646

Question: For C82A A111G A120U A145U C150A C169G U176G, which reverse-splicing fitness is on record?
Answer: 0.0019

Question: Which reverse-splicing fitness does the source give for C82A A111G A120U A145U C150A C169G U176C here?
Answer: 0.00264

Question: For C82A A111G A120U A145U C150A C169G U176A, which reverse-splicing fitness is on record?
Answer: 0.00301

Question: With C82A A111G A120U C150A C169G U176C as the variant, how does the reverse-splicing fitness read?
Answer: 0.00412

Question: For C82A A111G A120U C150A C169G U176G, which reverse-splicing fitness is on record?
Answer: 0.00222

Question: Which reverse-splicing fitness does the source give for C82A A111G A120U C150A C169G U176A here?
Answer: 0.00908

Question: With C82A A111G A120U A145U C169G U176G as the variant, how does the reverse-splicing fitness read?
Answer: 0.00177

Question: Which reverse-splicing fitness does the source give for C82A A111G A120U A145U C169G U176A here?
Answer: 0.00272

Question: For C82A A111G A120U A145U C169G U176C, which reverse-splicing fitness is on record?
Answer: 0.00235

Question: Which reverse-splicing fitness does the source give for C82A A111G A145C C169G U176A here?
Answer: 0.0278

Question: Which reverse-splicing fitness does the source give for C82A A111G A145C C169G U176C here?
Answer: 0.0155

Question: For C82A A111G A145C C169G U176G, which reverse-splicing fitness is on record?
Answer: 0.00487

Question: For C82A A111G A120U C150U C169A U176A, which reverse-splicing fitness is on record?
Answer: 0.00534

Question: For C82A A111G A120U C150U C169A U176G, which reverse-splicing fitness is on record?
Answer: 0.00235

Question: With C82A A111G A120U C150U C169A U176C as the variant, how does the reverse-splicing fitness read?
Answer: 0.00346

Question: For C82A A111G A120U C150U, which reverse-splicing fitness is on record?
Answer: 0.0201

Question: With C82A A111G A120U C150G as the variant, how does the reverse-splicing fitness read?
Answer: 0.00849

Question: With C82A A111G A120U C150A as the variant, how does the reverse-splicing fitness read?
Answer: 0.00855

Question: Which reverse-splicing fitness does the source give for C82A A111G A120U A145U C150G C169A U176C here?
Answer: 0.00338

Question: Which reverse-splicing fitness does the source give for C82A A111G A120U A145U C150G C169A U176A here?
Answer: 0.0039

Question: For C82A A111G A120U A145U C150G C169A U176G, which reverse-splicing fitness is on record?
Answer: 0.00276

Question: With C82A A111G A120U A145U C150G C169U U176G as the variant, how does the reverse-splicing fitness read?
Answer: 0.0026

Question: For C82A A111G A120U A145U C150G C169U U176C, which reverse-splicing fitness is on record?
Answer: 0.00353

Question: For C82A A111G A120U A145U C150G C169U U176A, which reverse-splicing fitness is on record?
Answer: 0.00252

Question: Which reverse-splicing fitness does the source give for C82A A111G A120U A145C C169G here?
Answer: 0.00315

Question: For C82A A111G A120U A145C C169A, which reverse-splicing fitness is on record?
Answer: 0.00203

Question: For C82A A111G A120U A145C C169U, which reverse-splicing fitness is on record?
Answer: 0.00349

Question: For C82A A111G A120U C150A C169U, which reverse-splicing fitness is on record?
Answer: 0.00375

Question: For C82A A111G A120U C150A C169G, which reverse-splicing fitness is on record?
Answer: 0.00463
